{"source": "patent US20210205413A1", "about": "(Nektar Therapeutics, priority 2018, published 2021)", "key": {"[1]": {"assay": "Single dose pharmacokinetics in monkeys (IV and SC)", "assay_type": "in vivo, Cynomolgus Monkeys"}, "[2]": {"assay": "Single dose toxicokinetics in rats (SC, LS-2016-004)", "assay_type": "in vivo, Rat", "conditions": "mean of three rats per time point"}, "[3]": {"test_system": "Balb/c mice (KLH DTH model)", "assay": "Mouse KLH delayed-type hypersensitivity (DTH) efficacy model, ear swelling", "assay_type": "in vivo", "procedure": "Mice are sensitized subcutaneously in their dorsal area with a 100 μl subcutaneous injection containing 100 μg keyhole limpit hemocyanin (KLH) in an emulsion containing Complete Freund's Adjuvant (CFA) and Incomplete Freund's Adjuvant, at a ratio of 1:1:1 respectively. Five days later, baseline ear thickness is measured prior to challenge with 10 μg of KLH intradermally in the left ear, with the right ear remaining untreated. Ear thickness measurements are measured with calipers at 24, 48, 72 and 96 hours post KLH challenge in all groups. […] A positive control consisting of cyclosporin (10 mg/kg, single dose) was administered on day 0."}, "[4]": {"assay": "Solution phase stability by HPLC", "assay_type": "physicochemical", "conditions": "5° C.", "procedure": "The mobile phase is 0.2M ammonium acetate (pH 5.5) at a volume ratio of 80:20 with acetonitrile. The diluent/formulation buffer contained 10 mM sodium acetate, 200 mM sodium chloride, 2% sucrose, at a pH of 5.0. […] Samples are stable up to 5 days at 5° C. in solution.\n(refrigerated), and −20° C. at 1, 3, 5, and 7-day time points by RP-HPLC as previously described.\nDifferences between the RUR20kD-IL-2 composition solutions are evaluated against a control, freshly prepared RUR20kD-IL-2 composition sample solution."}, "[5]": {"test_system": "Tcon proliferation", "assay": "In vitro Treg suppression assay (splenic Tregs of treated mice co-cultured with Tcon)", "assay_type": "cell-based, C57BL/6 mice", "procedure": "The objective of this study is to assess the inhibitory function of regulatory T cells. […] Treg and Tcon are co-cultured at a range of ratios from 1:2 to 1:512 for three days. Cellular proliferation is evaluated by ^3H-thymidine incorporation over the final 16 hours of the assay, and the % of proliferating cells relative to plate controls is calculated.\nSingle-cell isolations are prepared for each spleen, and the resultant splenocyte mixtures are pooled for each dose group at each timepoint. A portion of the pooled sample equivalent to one spleen is aliquoted for immune cell profiling. The remaining splenocyte preparation is utilized for isolation of regulatory T cells (Tregs). […]\nIn vitro suppression assays are carried out in RPMI 1640 medium supplemented with 10% fetal bovine serum, 2 mM L-glutamine, 1 mM sodium pyruvate, 0.5 μM β-mercaptoethanol, and 1× antibiotic/antimycotic (100 units/mL penicillin, 100 μg/mL streptomycin and 250 ng/mL amphotericin B). […] The suppressive capacity of Tregs is assessed by the addition of Tregs to Tcon at different ratios (Treg:Tcon ratios of […] to 1:512). […] After washing cells free from unincorporated [3H]-thymidine, thymidine uptake is measured as counts-per-minute (CPM) using a microplate scintillation counter (TopCount NXT, Perkin Elmer). […]"}, "[6]": {"test_system": "NK cells", "assay": "Single-dose PK/PD study in mice: NK cells", "assay_type": "in vivo, C57BL/6 mice", "conditions": "single SC 0.3 mg/kg (highest dose), relative to vehicle control", "from_the_text": "Following administration, blood and spleen samples are collected at days 1-7 and day 10 post administration. More particularly, at each time point, blood and spleen samples are collected; samples are pooled and assessed for pharmacodynamic analysis of drug action on lymphocyte cell populations by flow cytometry (see e.g. Example 5), expressed as a fold change relative to vehicle control. In addition to changes in cell numbers, functional markers and markers of activity are quantified. Finally, plasma drug concentration is also assessed."}, "[7]": {"conditions": "cynomolgus monkeys, single IV 0.025 mg/kg, mean of male and female"}, "[8]": {"conditions": "cynomolgus monkeys, single SC 0.025 mg/kg, mean of male and female"}, "[9]": {"conditions": "SC q3d, AUC0-96h of change in ear thickness"}}, "note": "Several values for one entry are separate records, joined by “and”; a condition that tells them apart may be missing. Equal values may be shown once.", "data": [{"substance": "(1,3-bis(methoxypoly(ethylene glycol)10kDcarbamoyl)-2-propanoxy)-4-butanamide)interleukin-2) [RUR20kD-IL-2]", "values": [{"measurement": "AUCinf", "setting": "[1]; [7]", "value": 100000, "unit": "ng·h/mL"}, {"measurement": "AUClast", "setting": "[1]; [7]", "value": 71200, "unit": "ng·h/mL"}, {"measurement": "Half-life", "setting": "[1]; [7]", "value": 310, "unit": "h"}, {"measurement": "MRTinf", "setting": "[1]; [7]", "value": 403, "unit": "h"}, {"measurement": "Vss", "setting": "[1]; [7]", "value": 0.1, "unit": "L/kg"}, {"measurement": "CL", "setting": "[1]; cynomolgus monkeys, single IV 0.025 mg/kg, mean of male and female, 0.025 mg/kg", "value": "5.88 mL/day/kg and 6 mL/day/kg"}, {"measurement": "AUCinf", "setting": "[1]; [8]", "value": 86000, "unit": "ng·h/mL"}, {"measurement": "AUClast", "setting": "[1]; [8]", "value": 65400, "unit": "ng·h/mL"}, {"measurement": "Cmax", "setting": "[1]; [8]", "value": 250, "unit": "ng/mL"}, {"measurement": "Half-life", "setting": "[1]; [8]", "value": 250, "unit": "h"}, {"measurement": "MRTinf", "setting": "[1]; [8]", "value": 360, "unit": "h"}, {"measurement": "Vss relative to species-specific plasma volume", "setting": "[1]; monkeys", "value": "2-4 fold"}, {"measurement": "half-lives", "setting": "[1]; monkeys, intravenous or subcutaneous dosing, range", "value": "10.4 to 12.9", "unit": "days"}, {"measurement": "AUCinf", "setting": "[2]; single SC 0.01 mg/kg", "value": 5230, "unit": "ng·h/mL"}, {"measurement": "AUClast", "setting": "[2]; single SC 0.01 mg/kg", "value": 5210, "unit": "ng·h/mL"}, {"measurement": "Cmax", "setting": "[2]; single SC 0.01 mg/kg", "value": 60, "unit": "ng/mL"}, {"measurement": "Half-life", "setting": "[2]; single SC 0.01 mg/kg", "value": 33.8, "unit": "h"}, {"measurement": "MRTinf", "setting": "[2]; single SC 0.01 mg/kg", "value": 63.1, "unit": "h"}, {"measurement": "tmax", "setting": "[2]; single SC 0.01 mg/kg", "value": 24, "unit": "h"}, {"measurement": "AUCinf", "setting": "[2]; single SC 0.1 mg/kg", "value": 73000, "unit": "ng·h/mL"}, {"measurement": "AUClast", "setting": "[2]; single SC 0.1 mg/kg", "value": 71100, "unit": "ng·h/mL"}, {"measurement": "Cmax", "setting": "[2]; single SC 0.1 mg/kg", "value": 640, "unit": "ng/mL"}, {"measurement": "Half-life", "setting": "[2]; single SC 0.1 mg/kg", "value": 58.6, "unit": "h"}, {"measurement": "MRTinf", "setting": "[2]; single SC 0.1 mg/kg", "value": 97.9, "unit": "h"}, {"measurement": "tmax", "setting": "[2]; single SC 0.1 mg/kg", "value": 24, "unit": "h"}, {"measurement": "AUCinf", "setting": "[2]; single SC 1.5 mg/kg", "value": 678000, "unit": "ng·h/mL"}, {"measurement": "AUClast", "setting": "[2]; single SC 1.5 mg/kg", "value": 672000, "unit": "ng·h/mL"}, {"measurement": "Cmax", "setting": "[2]; single SC 1.5 mg/kg", "value": 9300, "unit": "ng/mL"}, {"measurement": "Half-life", "setting": "[2]; single SC 1.5 mg/kg", "value": 47.3, "unit": "h"}, {"measurement": "MRTinf", "setting": "[2]; single SC 1.5 mg/kg", "value": 73.7, "unit": "h"}, {"measurement": "tmax", "setting": "[2]; single SC 1.5 mg/kg", "value": 48, "unit": "h"}, {"measurement": "ear swelling relative to vehicle control", "setting": "[3]; SC 0.003-0.3 mg/kg every three days", "value": "significant dose-dependent decreases in ear swelling"}, {"measurement": "dose achieving maximal effect", "setting": "[3]; [9]", "value": 0.3, "unit": "mg/kg"}, {"measurement": "minimally effective dose", "setting": "[3]; [9]", "value": 0.01, "unit": "mg/kg"}, {"measurement": "time samples are stable in solution", "setting": "[4]; 1.0 mg/mL in formulation buffer", "value": "up to 5 days"}, {"measurement": "relative difference of mono-PEG, tetra-PEG and penta-PEG species", "setting": "[4]; 1.0 mg/mL solution pH 5, RT, −20° C. up to 7 days, RP-HPLC", "value": "up to 8%"}, {"measurement": "duration of increased Treg suppressive activity", "setting": "[5]; Treg:Tcon ratio 1:2", "value": "maintained for four days"}, {"measurement": "suppressive capacity of Tregs isolated after administration", "setting": "[5]; Tregs isolated 1 and 4 days post dose, vs vehicle", "value": "greatly increased suppressive capacity"}, {"measurement": "increase in NK cells", "setting": "[6]", "value": "less than 2 fold"}]}]}
